The values below come from article PMC10261046, “Mechanism of small molecule inhibition of Plasmodium falciparum myosin A informs antimalarial drug design” (Nature Communications, 2023).

The target in test [1] is T1, Full-length PfMyoA heavy chain WT (Plasmodium falciparum, UniProt Q8IDR3 1-818).
T1 sequence (heavy): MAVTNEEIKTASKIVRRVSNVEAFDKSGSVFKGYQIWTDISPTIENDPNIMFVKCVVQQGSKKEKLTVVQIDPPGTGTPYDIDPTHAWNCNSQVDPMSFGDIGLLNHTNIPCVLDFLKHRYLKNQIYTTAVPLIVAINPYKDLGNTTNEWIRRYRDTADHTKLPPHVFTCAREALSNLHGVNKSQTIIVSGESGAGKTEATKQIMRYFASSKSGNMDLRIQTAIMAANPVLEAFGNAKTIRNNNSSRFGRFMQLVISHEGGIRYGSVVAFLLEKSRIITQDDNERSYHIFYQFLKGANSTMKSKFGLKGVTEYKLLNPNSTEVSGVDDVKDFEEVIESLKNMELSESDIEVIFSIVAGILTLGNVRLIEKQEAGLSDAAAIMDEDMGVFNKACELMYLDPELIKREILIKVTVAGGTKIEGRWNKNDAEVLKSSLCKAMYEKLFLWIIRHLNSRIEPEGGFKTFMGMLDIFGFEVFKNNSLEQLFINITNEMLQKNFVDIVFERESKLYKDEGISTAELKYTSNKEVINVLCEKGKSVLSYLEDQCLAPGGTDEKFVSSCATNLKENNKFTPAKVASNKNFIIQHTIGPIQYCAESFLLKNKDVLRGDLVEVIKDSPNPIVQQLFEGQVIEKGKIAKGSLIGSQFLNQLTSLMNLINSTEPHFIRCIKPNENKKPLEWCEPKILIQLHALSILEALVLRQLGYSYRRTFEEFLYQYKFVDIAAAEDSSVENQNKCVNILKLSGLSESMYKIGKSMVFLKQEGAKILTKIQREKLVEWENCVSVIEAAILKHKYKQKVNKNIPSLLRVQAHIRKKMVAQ
Put plainly: crystal structure; PfMyoA/ELC/MTIP-ΔN co-crystallized with or without KNX-002 and with or without ATPγS; hanging drop, 4 °C, 2.0 M ammonium sulfate, 0.1 M sodium HEPES pH 7.5, 4% PEG400. To be noted: both partners purified.

Test [2] has as its target Skeletal muscle actin (chicken), filaments (chicken, UniProt P68139 1-377). Put plainly: count of fluorescent actin filaments on surface-immobilized myosin (modified in vitro motility assay); PfMyoA surface-immobilized; same buffer, 0% methylcellulose, 30 °C; no nucleotide (NF); with or without KNX-002. As to conditions: both partners purified.

B1: MTIP-ΔN (PfMTIP lacking residues 1-E60) (domain or fragment)
light: SVADIQQLEEKVDESDVRIYFNEKSSGGKISIDNASYNARKLGLAPSSIDEKKIKELYGDNLTYEQYLEYLSICVHDKDNVEELIKMFAHFDNNCTGYLTKSQMKNILTTWGDALTDQEAIDALNAFSSEDNIDYKLFCEDILQ
notes: also called ΔN-MTIP
Take B1: in test [1], the binding result is on record as “binds”.

B2: PfMyoA (full length Plasmodium falciparum myosin A heavy chain WT with bound light chains PfELC and PfMTIP) (complex)
chain 1: MAVTNEEIKTASKIVRRVSNVEAFDKSGSVFKGYQIWTDISPTIENDPNIMFVKCVVQQGSKKEKLTVVQIDPPGTGTPYDIDPTHAWNCNSQVDPMSFGDIGLLNHTNIPCVLDFLKHRYLKNQIYTTAVPLIVAINPYKDLGNTTNEWIRRYRDTADHTKLPPHVFTCAREALSNLHGVNKSQTIIVSGESGAGKTEATKQIMRYFASSKSGNMDLRIQTAIMAANPVLEAFGNAKTIRNNNSSRFGRFMQLVISHEGGIRYGSVVAFLLEKSRIITQDDNERSYHIFYQFLKGANSTMKSKFGLKGVTEYKLLNPNSTEVSGVDDVKDFEEVIESLKNMELSESDIEVIFSIVAGILTLGNVRLIEKQEAGLSDAAAIMDEDMGVFNKACELMYLDPELIKREILIKVTVAGGTKIEGRWNKNDAEVLKSSLCKAMYEKLFLWIIRHLNSRIEPEGGFKTFMGMLDIFGFEVFKNNSLEQLFINITNEMLQKNFVDIVFERESKLYKDEGISTAELKYTSNKEVINVLCEKGKSVLSYLEDQCLAPGGTDEKFVSSCATNLKENNKFTPAKVASNKNFIIQHTIGPIQYCAESFLLKNKDVLRGDLVEVIKDSPNPIVQQLFEGQVIEKGKIAKGSLIGSQFLNQLTSLMNLINSTEPHFIRCIKPNENKKPLEWCEPKILIQLHALSILEALVLRQLGYSYRRTFEEFLYQYKFVDIAAAEDSSVENQNKCVNILKLSGLSESMYKIGKSMVFLKQEGAKILTKIQREKLVEWENCVSVIEAAILKHKYKQKVNKNIPSLLRVQAHIRKKMVAQ
chain 2: MASDMEEKFREAFILFSSCSDHIEMYKFFELMNSFGIILTNDEKAALPNDINMDYWLNFAKKHYNYEQPFKHINNVNEQNTNVQIKIDNFLGIMKALDTRLTESDLNILLQITNPENKSTLNLKTVSQKLTESI
chain 3: MKQECNVCYFNLPDPESTLGPYDNELNYFTWGPGFEYEPEPQRKPLSIEESFENSEESEESVADIQQLEEKVDESDVRIYFNEKSSGGKISIDNASYNARKLGLAPSSIDEKKIKELYGDNLTYEQYLEYLSICVHDKDNVEELIKMFAHFDNNCTGYLTKSQMKNILTTWGDALTDQEAIDALNAFSSEDNIDYKLFCEDILQ
notes: also called class XIV myosin A; M.ADP; copies: + +
On to B2, for which the binding result in test [2] was “binds”.

B3: PfELC (natural protein)
light: MASDMEEKFREAFILFSSCSDHIEMYKFFELMNSFGIILTNDEKAALPNDINMDYWLNFAKKHYNYEQPFKHINNVNEQNTNVQIKIDNFLGIMKALDTRLTESDLNILLQITNPENKSTLNLKTVSQKLTESI
notes: also called essential light chain
As for B3, the binding result in test [1] was “binds”.
